We go through 7 molecules from publication PMC4432371, “Functional Characterization of Novel Sesquiterpene Synthases from Indian Sandalwood, Santalum album” (Scientific Reports, 2015).

The target of one series is SaSS (Santalum album, UniProt E3W202, Y539W). In words: GC / GC-MS product analysis. The conditions noted are these: data not shown; mutant sequence NCBI JQ690659; assay form of the mutant not described. It is filed as biochemical.
The next series concerns the target SaFDS (Santalum album, UniProt E3W209). Briefly: GC / GC-MS of (E,E)-farnesol after alkaline phosphatase. The conditions noted are these: 25 mM HEPES, 10% glycerol, 5 mM DTT, 10 mM MgCl2, pH 7.4, 30 °C. Format: biochemical.
Substrate in series [1]: CC(C)=CCC/C(C)=C/CC/C(C)=C/CO[P@@](=O)(O)OP(=O)(O)O
In words: GC quantification of product, steady-state kinetics. It is filed as biochemical, Santalum album. The settings on record: apparent Km, HEPES buffer, 30 °C, 5 min, 5 μM enzyme. The text has this:
GC quantification of product, steady-state kinetics on SaSS

Substrate in series [2]: CC(C)=CCC/C(C)=C/CC/C(C)=C/CO[P@@](=O)(O)OP(=O)(O)O
Described as above. It is filed as biochemical, Santalum album. The settings on record: apparent Km, HEPES buffer, 30 °C, 5 min, 5 μM enzyme. An excerpt: GC quantification of product, steady-state kinetics on SaSQS2
This is another data set of the same source.

Substrate in series [3]: CC(C)=CCC/C(C)=C/CC/C(C)=C/CO[P@@](=O)(O)OP(=O)(O)O
Described as above. It is filed as biochemical, Santalum album. The conditions noted are these: apparent Km, HEPES buffer, 30 °C, 5 min, 5 μM enzyme. The text has this:
GC quantification of product, steady-state kinetics on SaBS
This is another data set of the same source.

Substrate in series [4]: CC(C)=CCC/C(C)=C/CC/C(C)=C/CO[P@@](=O)(O)OP(=O)(O)O
The description is as above. It is filed as biochemical, Santalum album. The conditions noted are these: apparent Km, HEPES buffer, 30 °C, 5 min, 5 μM enzyme. The text has this:
GC quantification of product, steady-state kinetics on SaSQS1
The source holds these as a separate data set.

Chain of SaFDS (E3W209 entry or part of it): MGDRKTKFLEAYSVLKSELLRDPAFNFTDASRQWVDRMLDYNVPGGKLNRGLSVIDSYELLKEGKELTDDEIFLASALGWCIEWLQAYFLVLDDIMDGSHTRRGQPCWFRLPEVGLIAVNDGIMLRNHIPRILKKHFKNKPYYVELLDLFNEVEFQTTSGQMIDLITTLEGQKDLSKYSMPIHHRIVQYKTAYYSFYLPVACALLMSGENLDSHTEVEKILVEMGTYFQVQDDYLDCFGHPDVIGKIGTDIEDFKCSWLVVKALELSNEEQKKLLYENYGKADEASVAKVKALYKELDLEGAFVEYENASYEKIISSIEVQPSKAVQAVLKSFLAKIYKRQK
Chain of SaSS (E3W202 whole entry Y539W): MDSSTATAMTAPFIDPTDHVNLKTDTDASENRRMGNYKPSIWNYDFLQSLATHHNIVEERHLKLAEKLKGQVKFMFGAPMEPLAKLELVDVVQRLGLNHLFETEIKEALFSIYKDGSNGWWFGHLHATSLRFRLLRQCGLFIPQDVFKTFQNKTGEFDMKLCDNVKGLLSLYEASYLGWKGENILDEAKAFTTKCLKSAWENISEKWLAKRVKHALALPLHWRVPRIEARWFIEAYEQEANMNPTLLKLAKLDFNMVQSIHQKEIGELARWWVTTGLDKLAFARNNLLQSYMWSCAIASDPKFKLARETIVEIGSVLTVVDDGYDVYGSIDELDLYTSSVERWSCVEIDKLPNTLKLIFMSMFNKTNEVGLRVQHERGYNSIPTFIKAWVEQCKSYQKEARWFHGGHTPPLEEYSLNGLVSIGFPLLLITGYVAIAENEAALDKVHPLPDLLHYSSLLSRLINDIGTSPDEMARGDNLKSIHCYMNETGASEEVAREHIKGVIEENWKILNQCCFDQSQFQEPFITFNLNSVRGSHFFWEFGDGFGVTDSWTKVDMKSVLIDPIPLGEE

With `CC(C)=CCC/C(C)=C/CC/C(C)=C/COP(=O)(O)OP(=O)(O)O` [(E,E)-FPP], the “GC / GC-MS product analysis” value on SaSS is listed as “a mutant of SaSS (Y539W, NCBI: JQ690659) was able to cyclize (E,E)-FPP”.
Regarding `CC(C)=CCC/C(C)=C/COP(=O)(O)OP(=O)(O)O` [GPP], at SaFDS (with IPP), the “GC / GC-MS of (E,E)-farnesol after alkaline phosphatase” value is “Incubation of recombinant SaFDS with equimolar concentrations of IPP and GPP”.
Consider `C=C(C)CCOP(=O)(O)OP(=O)(O)O` [IPP], for which the “GC / GC-MS of (E,E)-farnesol after alkaline phosphatase” value at SaFDS (with GPP or DMAPP) is “Incubation of recombinant SaFDS with equimolar concentrations of IPP and GPP”.

B1: SaSS (Santalum album) (protein)
chain: MDSSTATAMTAPFIDPTDHVNLKTDTDASENRRMGNYKPSIWNYDFLQSLATHHNIVEERHLKLAEKLKGQVKFMFGAPMEPLAKLELVDVVQRLGLNHLFETEIKEALFSIYKDGSNGWWFGHLHATSLRFRLLRQCGLFIPQDVFKTFQNKTGEFDMKLCDNVKGLLSLYEASYLGWKGENILDEAKAFTTKCLKSAWENISEKWLAKRVKHALALPLHWRVPRIEARWFIEAYEQEANMNPTLLKLAKLDFNMVQSIHQKEIGELARWWVTTGLDKLAFARNNLLQSYMWSCAIASDPKFKLARETIVEIGSVLTVVDDGYDVYGSIDELDLYTSSVERWSCVEIDKLPNTLKLIFMSMFNKTNEVGLRVQHERGYNSIPTFIKAWVEQCKSYQKEARWFHGGHTPPLEEYSLNGLVSIGFPLLLITGYVAIAENEAALDKVHPLPDLLHYSSLLSRLINDIGTSPDEMARGDNLKSIHCYMNETGASEEVAREHIKGVIEENWKILNQCCFDQSQFQEPFITFNLNSVRGSHFFYEFGDGFGVTDSWTKVDMKSVLIDPIPLGEE
As to B1, in series [1], the Km worked out at 0.59 ± 0.24 µM, the kcat was 0.00833 ± 0.0005 s⁻¹ and the kcat/Km was found to be 15000 M⁻¹ s⁻¹.

B2: SaSQS2 (Santalum album) (protein)
chain: MASVIVEPIRCNNDNDVISTVVDDSSVVRRAANYPPNLWDYEFLQSLGDQCTVEEKHLKLADKLKEEVKSLIKQTMEPLTKLEFIDTVRRLGLKYQFETEVKEAVVMVSKYENDAWWIDNLHATSLRFRIMRENGIFVPQDVFERFKDTDGFKNQLCEDVKGLLSLYEASFLGWEGEDILDEARTFATSKLKSIEGKIPSPSLAKKVSHALDLPLHWRTIRYEARWFIDTYEEEEDVNLTLLRYAKLDFNIVQSFHQKEIGRLSRWWVGTGLDKMPFARNGLIQSYMYAIGMLFEPNLGEVREMEAKVGALITTIDDVYDVYGTMEELELFTDITNRWDISKADQLPRNIRMPLLTMFNTSNDIGYWALKERGFNGIPCTAKVWSDQLKSYTKEAKWFHEGHKPTLEEYLDNALVSIGFPNLLVTSYLLTVENPTKEKLDYVNSLPLFVRASCILCRIINDLGTSPDEMERGDNLKSIQCYMNEAGASQEVAREHIEGLVRMWWKRLNKCLFEPSPFAEPFLSFTVNVVRGSHFFYQYGDGYGNAESWTKKQGMSVLIHPIPLNEE
With B2, in series [2], the Km was 15.30 ± 3.83 µM, the kcat was determined as 0.00233 ± 0.000167 s⁻¹ and the kcat/Km is 150 M⁻¹ s⁻¹.

B3: SaBS (Santalum album) (protein)
chain: MDAFATSPTSALIKAVNCIAHVTPMAGEDSSENRRASNYKPSSWDYEFLQSLATSHNTVQEKHMKMAEKLKEEVKSMIKGQMEPVAKLELINILQRLGLKYRFESEIKEELFSLYKDGTDAWWVDNLHATALRFRLLRENGIFVPQDVFETLKDKSGKFKSQLCKDVRGLLSLYEASYLGWEGEDLLDEAKKFSTTNLNNVKESISSNTLGRLVKHALNLPLHWSAARYEARWFIDEYEKEENVNPNLLKYAKFDFNIVQSIHQRELGNLARWWVETGLDKLSFVRNTLMQNFMWGCAMVFEPQYGKVRDAAVKQASLIAMVDDVYDVYGSLEELEIFTDIVDRWDITGIDKLPRNISMILLTMFNTANQIGYDLLRDRGFNGIPHIAQAWATLCKKYLKEAKWYHSGYKPTLEEYLENGLVSISFVLSLVTAYLQTETLENLTYESAAYVNSVPPLVRYSGLLNRLYNDLGTSSAEIARGDTLKSIQCYMTQTGATEEAAREHIKGLVHEAWKGMNKCLFEQTPFAEPFVGFNVNTVRGSQFFYQHGDGYAVTESWTKDLSLSVLIHPIPLNEED
As to B3, in series [3], the Km is 12.59 ± 1.40 µM, the kcat turned out to be 0.000667 s⁻¹ and the specificity constant (kcat/Km) amounted to 50 M⁻¹ s⁻¹.

B4: SaSQS1 (Santalum album) (protein)
chain: MDLCQIPPTSPISPSVPFNGDDSSVVRRSANYPANLWDYDFLQSLGRHSSVTEEHVGLAEKLKGEVKSLITGPMEPLAKLEFIDSVRRLGLKYQFETEMKEALANISKDGYDSWWVDNLRATALRFRLLRENGIFVPQDVFERFQNKETGKFKNELCEDVKGLLNLYEASFLGWEGEDILDEARTFSTAQLKNVEGKISSPNLAKIVHHALDLPLHWRAIRYEARWFIDIYEDEEDMNPTLLKYAKLDFNIVQSFHQAEIGRLARWWVGTGLDKLPFARNGLIQSYMYAIGMLFEPHLGEVREMEAKVGALITTIDDVYDVYGTMEELELFTDITERWDINRVDQLPRNIRMPLLTMFNTSNDIGYWALKERGFNGIPYTAKVWADQLKSYTKEAKWFHEGHKPTLEEYLENALVSIGFPNLLVTSYLLTVDNPTKEKLDYVDSLPLFVRASCILCRIINDLGTSPDEMERGDNLKSIQCYMNETGASQEVAREHIEGLVRMWWKRLNKCLFEPSPFTEPFLSFTINVVRGSHFFYQYGDGYGNAESWTKNQGMSVLIHPITLDEE
Consider B4, for which, in series [4], the Km is 11.12 ± 2.80 µM, the catalytic constant (kcat) stood at 0.00583 ± 0.0005 s⁻¹ and the kcat/Km came out at 500 M⁻¹ s⁻¹.
